Kd data for 1 substance are collected here from doi:10.1101/2025.11.18.688960.

What all share (test): fluorescence anisotropy
(In fluorescence polarisation assays a small probe gives low polarisation when free and higher when bound to something large.)

Data set [1] deals with Protamine 1 WT (P1) (mouse).
In data set [2] the test system is Protamine 1 AA (P1 S43AT45A) (mouse).
Data set [3] relates to Protamine 1 EE (P1 S43ET45E) (mouse).

Usually Kd stands for the concentration at which binding is half-saturated. A high value points to weaker binding. In the case of 99 bp fluorescent dsDNA, the values for the dissociation constant Kd in data set [1], in data set [2] and in data set [3] were 430 nM, 610 nM and 1100 nM, respectively.
